Assay [1] has as its target HLA-A*6802 (human). The assay can be described thus: competition for purified HLA with 125I-labelled standard peptide 1072.34 [..] as competitor, gel filtration. Particulars: scale: ratio. In general terms: In gel filtration, larger molecules generally elute earlier.
Assay [2] addresses HLA-A*0201 (human). The assay can be described thus: competition for purified HLA with 125I-labelled standard peptide 941.01 [..] as competitor, gel filtration. The following applies: scale: ratio.
Assay [3] has as its target HLA-A*0202 (human). The description is as above. Particulars: scale: ratio.
Assay [4] concerns the target HLA-A*0203 (human). Described as above. The following applies: scale: ratio.
In assay [5] the target is HLA-A*0202 (purified HLA class I molecule) (human). The assay can be described thus: competition with 125I-labelled standard peptide for purified HLA, gel filtration.
The target of assay [6] is HLA-A*0206 (purified HLA class I molecule) (human). Described as above.
For assay [7], the target named is HLA-A*0201 (purified HLA class I molecule) (human). Described as above.
The target of assay [8] is HLA-A*0203 (purified HLA class I molecule) (human). The description is as above.
The target in assay [9] is HLA-A*0101 molecule, purified from cell lysates (human). Briefly: competition with 125I-labelled standard peptide for purified HLA-A*0101, gel filtration.
Assay [10] has as its target HLA-A*0203 (human). Briefly: competition with 125I-labelled standard peptide 941.01 ([..]) for purified HLA-A*0203, gel filtration.
The target of assay [11] is HLA-A*0202 (human). Briefly: competition with 125I-labelled standard peptide 941.01 ([..]) for purified HLA-A*0202, gel filtration.
Assay [12] has as its target HLA-A*6802 (human). The assay can be described thus: competition with 125I-labelled standard peptide 1072.34 ([..]) for purified HLA-A*6802, gel filtration.
The target of assay [13] is HLA-A*0206 (human). The assay can be described thus: competition with 125I-labelled standard peptide 941.01 ([..]) for purified HLA-A*0206, gel filtration.
For assay [14], the target named is HLA-A*0201 (human). Briefly: competition with 125I-labelled standard peptide 941.01 ([..]) for purified HLA-A*0201, gel filtration.
The target of assay [15] is HLA-A*1101 (human). Briefly: competition with 125I-labelled standard peptide 940.06 ([..], IC50 […] nM) for purified HLA-A*1101; gel filtration.
Assay [16] has as its target HLA-A*0301 (human). Briefly: competition with 125I-labelled probe peptide for purified HLA-A*0301, gel filtration.
A further assay deals with HLA-A*0101 (human). The assay can be described thus: inhibition of 125I-labeled standard peptide 944.02 binding to purified HLA-A*0101, gel filtration.
For another assay, the target named is HLA-A*3301 (human). The assay can be described thus: competition with 125I-labelled standard peptide for purified HLA, gel filtration. Particulars: scale: ratio.
Assay [17] has as its target HLA-A*1101 (human). Described as above. The following applies: scale: ratio.
Assay [18] deals with HLA-A*0301 (human). Described as above. The following applies: scale: ratio.
A further assay has as its target HLA-A*6801 (human). The description is as above. Particulars: scale: ratio.
Assay [19] deals with HLA-A*6802 (human). Briefly: competitive inhibition of 125I-labelled standard peptide binding to purified HLA, gel filtration.
Assay [20] concerns the target HLA-A*0202 (human). The description is as above.
The target of assay [21] is HLA-A*0206 (human). The description is as above.
Assay [22] concerns the target HLA-A*6802 (human). The assay can be described thus: competitive inhibition of 125I-labelled standard peptide binding to purified HLA, gel filtration; ratio = IC50 standard / IC50 test peptide. Particulars: remark: other sources report otherwise.
Assay [23] deals with HLA-A*0201 (human). Described as above.
The next assay has as its target HLA-B*0702 (human). The assay can be described thus: competition with 125I-labeled standard peptide (1075.23 [..]) for purified HLA-B*0702, gel filtration.
Assay [24] has as its target HLA-A*6802 (human). Briefly: competition with 125I-labelled standard peptide for purified HLA, gel filtration; ratio = IC50 standard / IC50 test peptide.
Assay [25] has as its target HLA-A*0201 (human). The description is as above.
Assay [26] deals with HLA-A*0202 (human). The description is as above.
The target in assay [27] is HLA-A*0203 (human). The description is as above.
Assay [28] deals with HLA-A*0206 (human). Described as above.
Assay [29] addresses HLA-A*6802 (human). Briefly: inhibition of 125I-standard peptide binding to purified HLA, gel filtration.
Assay [30] addresses HLA-A*0201 (human). The assay is described as above.
In assay [31] the target is HLA-A*0206 (human). The assay is described as above.
In assay [32] the target is HLA-A*0202 (human). Briefly: competitive inhibition of 125I-labelled standard peptide binding to purified HLA, gel filtration; ratio = IC50 standard / IC50 test peptide.
Assay [33] deals with HLA-A*0203 (human). The description is as above.
Assay [34] has as its target HLA-A*0206 (human). Described as above.
Assay [35] deals with HLA-A*0201 (human). Briefly: competition binding to purified HLA, 125I-labelled standard peptide, gel filtration; ratio = IC50 standard / IC50 test peptide. Particulars: remark: other sources report otherwise.
Assay [36] deals with HLA-A*0202 (human). The assay is described as above. Particulars: remark: other sources report otherwise.
Assay [37] has as its target HLA-A*0203 (human). Described as above. Particulars: remark: other sources report otherwise.
Assay [38] deals with HLA-A*0206 (human). Described as above. The following applies: remark: other sources report otherwise.
The target in assay [39] is HLA-A*0301 (human). Briefly: competition with 125I-labelled standard peptide for purified HLA-A*0301, gel filtration; relative binding.

These results are taken from US20070020327A1.

B1: … (Kallikrein position 52 / PSA position 48, 11-mer) (peptide)
peptide: GVLVHPQWVLT
modifications: not checked
For B1, the binding affinity ratio was -0.0001 in the assay with HLA-A*6802 (human) [1], 0.0002 in the assay with HLA-A*0201 (human) [2], 0.0005 with HLA-A*0202 (human) [3] and 0.0005 in the assay with HLA-A*0203 (human) [4].

B2: PSA peptide MLCAGRWT (position 192, 8 amino acids) (peptide)
peptide: MLCAGRWT
modifications: not checked
Turning to B2, the binding affinity ratio (IC50 of standard peptide / IC50 of test peptide) is 0.0012 in assay [5], -0.0001 in assay [6], 0.0006 in assay [7] and 0.0033 in [8].

B3: PSM peptide … (position 168, 9 amino acids) (peptide)
peptide: GMPEGDLVY
modifications: not checked
For B3, in [9], the binding affinity ratio (IC50 of the standard peptide / IC50 of the test peptide) was found to be 0.0001.

B4: PSA peptide VASRGRAV (position 38, 8 amino acids) (peptide)
peptide: VASRGRAV
modifications: not checked
Take B4: the binding affinity ratio (IC50 of standard peptide / IC50 of test peptide) with HLA-A*0203 (human) [10], with HLA-A*0202 (human) [11], with HLA-A*6802 (human) [12], with HLA-A*0206 (human) [13] and in the assay with HLA-A*0201 (human) [14] was -0.0001 each time.

B5: PSM.273 peptide … (peptide)
peptide: PANEYAYRR
modifications: not checked
Consider B5, for which the binding affinity ratio (IC50 of standard peptide / IC50 of test peptide) with HLA-A*1101 (human) [15] was found to be 0.0002.

B6: PSM 273 peptide … (peptide)
peptide: PANEYAYRR
modifications: not checked
As for B6, the binding affinity ratio (IC50 of the standard peptide / IC50 of the test peptide) in the assay with HLA-A*0301 (human) [16] came out at 0.0001.

B7: PSA 236 peptide … (peptide)
peptide: PSLYTKVVHY
modifications: not checked
For B7, in the assay with HLA-A*0101 (human), the binding affinity ratio (IC50 of the standard peptide / IC50 of the test peptide) is 0.001.

B8: … (PSA, position 125) (peptide)
peptide: PAELTDAVK
modifications: not checked
Regarding B8, the binding affinity ratio is 0.0006 with HLA-A*3301 (human), 0.0002 with HLA-A*1101 (human) [17], 0.0002 with HLA-A*0301 (human) [18] and 0.0001 with HLA-A*6801 (human).

B9: KITDVVKV (Kallikrein, position 131) (peptide)
peptide: KITDVVKV
modifications: not checked
For the molecule B9, the binding affinity ratio (ratio to standard peptide) with HLA-A*6802 (human) [19] was -0.0001; in the assay with HLA-A*0202 (human) [20] it was 0.0002; in the assay with HLA-A*0206 (human) [21] it was 0.0002.

B10: … (Kallikrein, position 138) (peptide)
peptide: VLGLPTQEPA
modifications: not checked
For the molecule B10, the binding affinity ratio with HLA-A*6802 (human) [22] is -0.0001; with HLA-A*0201 (human) [23] (remark: other sources report otherwise), 0.0008.

B11: PSM peptide … (position 119, 9 amino acids) (peptide)
peptide: YPNKTHPNY
modifications: not checked
In the case of B11, the binding affinity ratio (IC50 of standard peptide / IC50 of test peptide) with HLA-B*0702 (human) came to 0.0001.

B12: Kallikrein (hK2) peptide … (position 150, 11 amino acids); the same letters in PSA at position 146 (peptide)
peptide: TTCYASGWGSI
modifications: not checked
B12: the binding affinity ratio (IC50 of standard peptide / IC50 of test peptide) was 0.0009 with HLA-A*0202 (human) [11], 0.0005 in the assay with HLA-A*0206 (human) [13] and -0.0001 with HLA-A*0201 (human) [14].

B13: PSA peptide QVHPQKVT, position 182, 8 amino acids (peptide)
peptide: QVHPQKVT
modifications: not checked
With B13, the binding affinity ratio (ratio to standard peptide) is -0.0001 in the assay with HLA-A*6802 (human) [24]; -0.0001 in the assay with HLA-A*0201 (human) [25]; -0.0001 with HLA-A*0202 (human) [26]; 0.0001 in the assay with HLA-A*0203 (human) [27]; -0.0001 in the assay with HLA-A*0206 (human) [28].

B14: Kallikrein 123 … (peptide)
peptide: LLRLSEPAKIT
modifications: not checked
Turning to B14, the binding affinity ratio (IC50 standard peptide / IC50 test peptide) (ratio to standard peptide) in the assay with HLA-A*6802 (human) [29] was -0.0001; with HLA-A*0201 (human) [30] it was 0.0002; in the assay with HLA-A*0206 (human) [31], -0.0001.

B15: … (Kallikrein, position 40) (peptide)
peptide: VAVYSHGWA
modifications: not checked
Turning to B15, the binding affinity ratio with HLA-A*0201 (human) [23] was -0.0001; in the assay with HLA-A*0202 (human) [32], -0.0001; with HLA-A*0203 (human) [33], 0.0002; with HLA-A*0206 (human) [34], 0.0002.

B16: … (PSA, position 136, 11 amino acids) (peptide)
peptide: DLPTQEPALGT
modifications: not checked
As to B16, the binding affinity ratio with HLA-A*0201 (human) [35] was found to be 0.0041; in the assay with HLA-A*0202 (human) [36], 0.018; with HLA-A*0203 (human) [37], 0.01; in the assay with HLA-A*0206 (human) [38], 0.0001.

B17: PSM peptide … (PSM position 31, 9 amino acids) (peptide)
peptide: GFFLLGFLF
modifications: not checked
For B17, in the assay with HLA-A*0301 (human) [39], the binding affinity ratio (IC50 of the standard peptide / IC50 of the test peptide) stood at 0.0005.
